Experimental data as given in publication PMC3676807, “A Chimeric UDP-Glucose Pyrophosphorylase Produced by Protein Engineering Exhibits Sensitivity to Allosteric Regulators” (International Journal of Molecular Sciences, 2013).

Columns and labels:
[1] = molecular target: T1, SmuGalU-Δ294EcoGlgC (chimeric UDP-Glc PPase); assay: Pi release after pyrophosphatase, Malachite Green; Hill fit; assay type: biochemical, Streptococcus mutans; Escherichia coli; details: allosteric activator; 1 mM Glc-1P, 1 mM UTP, 3 mM Mg2+, pH 8.0, 37 °C; read-out: A0.5
T1 construct: gene galU; entire S. mutans GalU fused to the 137 C-terminal residues of E. coli GlgC (from P295); N-terminal His-tag kept; E. coli BL21 (DE3) pLysS; homotetramer ~200 kDa

[2] = system: T1, SmuGalU-Δ294EcoGlgC (chimeric UDP-Glc PPase); assay: as above; assay type: biochemical, Streptococcus mutans; Escherichia coli; details: UDP-Glc synthesis, no effector, 3 mM Mg2+, pH 8.0, 37 °C
From the text: Pi release after pyrophosphatase, Malachite Green; Hill fit on SmuGalU-Δ294EcoGlgC (chimeric UDP-Glc PPase)

[3] = molecular target: UDP-glucose pyrophosphorylase from Streptococcus mutans (SmuGalU) (Streptococcus mutans ATCC 25175); assay: SEC; gel filtration on Superdex 200 (Tricorn 5/200 column), calibrated with protein standards 44-669 kDa; mass of the native protein; buffer not stated
[4] = molecular target: chimeric SmuGalU-Δ294EcoGlgC (Streptococcus mutans ATCC 25175 | Escherichia coli) (UniProt P0A6V1); assay: as above
[5] = substrate: Cc1cn([C@H]2C[C@H](O)[C@@H](COP(=O)(O)OP(=O)(O)OP(=O)(O)O)O2)c(=O)[nH]c1=O; assay: Pi release after pyrophosphatase, Malachite Green; Hill fit; assay type: biochemical, Streptococcus mutans; details: dTDP-Glc synthesis, 1 mM Glc-1P, 3 mM Mg2+, pH 8.0, 37 °C
[6] = substrate: O=P(O)(O)O[C@H]1O[C@H](CO)[C@@H](O)[C@H](O)[C@H]1O; assay: as above; assay type: biochemical, Streptococcus mutans; details: UDP-Glc synthesis, saturating UTP, 3 mM Mg2+, pH 8.0, 37 °C
[7] = substrate: O=c1ccn([C@@H]2O[C@H](COP(=O)(O)OP(=O)(O)OP(=O)(O)O)[C@@H](O)[C@H]2O)c(=O)[nH]1; assay: as above; assay type: biochemical, Streptococcus mutans; details: UDP-Glc synthesis, saturating Glc-1P, 3 mM Mg2+, pH 8.0, 37 °C

For O=C(O)[C@H](O)COP(=O)(O)O [3-PGA], which EC50 [1] is on record?
The EC50 was 5.4 mM.

How did the EC50 [1] turn out when O=P(O)(O)OC[C@H]1OC(O)(COP(=O)(O)O)[C@@H](O)[C@@H]1O (some centres unmarked) [Fru-1,6-bisP] was run?
The EC50 was 2 mM.

How did the Km ([2]; saturating UTP) turn out when O=P(O)(O)O[C@H]1O[C@H](CO)[C@@H](O)[C@H](O)[C@H]1O [Glc-1P] was run?
The Km was 60 ± 5 µM.

CC(=O)C(=O)O [Pyr] was tested. Which EC50 [1] did it give?
Its EC50 is 30 mM.

Which Km ([2]; saturating Glc-1P) does the source give for O=c1ccn([C@@H]2O[C@H](COP(=O)(O)OP(=O)(O)OP(=O)(O)O)[C@@H](O)[C@H]2O)c(=O)[nH]1 [UTP] here?
The Km was 240 ± 20 µM.

Which stoichiometry N [3] does the source give for “UDP-glucose pyrophosphorylase from Streptococcus mutans (SmuGalU) (enzyme)” here?
Its stoichiometry N is 4.

“chimeric SmuGalU-Δ294EcoGlgC (from UniProt P0A6V1 295-431) (enzyme)” was tested. Which stoichiometry N [4] did it give?
Its stoichiometry N is 4.

B1: SmuGalU (UDP-Glc PPase from S. mutans) (Streptococcus mutans UA159) (protein)
chain: MPSKKVRKAVIPAAGLGTRFLPATKALAKEMLPIVDKPTIQFIVEEALKSGIEDILVVTGKSKRSIEDHFDSNFELEYNLEQKGKTDLLKLVNDTTAINLHFIRQSHPRGLGDAVLQAKAFVGNEPFVVMLGDDLMDITDDKAIPLTRQLMNDYEETHASTIAVMEVPHEDVSAYGVIAPQGEGVSGLYSVDTFVEKPAPKEAPSNLAIIGRYLLTPEIFTILETQEPGAGNEVQLTDAIDTLNKTQRVFAREFKGKRYDVGDKFGFMKTSIDYALKHPQVKEDLKAYIIELGKKLDQKSTQKNSD
notes: full-length, N-terminal His-tag kept (pRSET-B), expressed in E. coli BL21 (DE3), Ni-NTA purified; homotetramer ~150 kDa; gene 921 bp
What does the source list for B1?
K0.5 [5]: 0.54 mM; K0.5 [6]: 0.090 ± 0.005 mM; Vmax [6]: 62.1 µmol/min/mg; Vmax/Km [6]: 690000 µL/min/mg; K0.5 [7]: 0.68 ± 0.06 mM; Vmax [7]: 62.1 µmol/min/mg; Vmax/Km [7]: 91300 µL/min/mg
